From publication doi:10.1101/2024.11.01.621505

Molecular target: CCR9 ΔCT (human) (UniProt P51686)
Sequence of UniProt P51686 (P51686 1-334, stated change not applied): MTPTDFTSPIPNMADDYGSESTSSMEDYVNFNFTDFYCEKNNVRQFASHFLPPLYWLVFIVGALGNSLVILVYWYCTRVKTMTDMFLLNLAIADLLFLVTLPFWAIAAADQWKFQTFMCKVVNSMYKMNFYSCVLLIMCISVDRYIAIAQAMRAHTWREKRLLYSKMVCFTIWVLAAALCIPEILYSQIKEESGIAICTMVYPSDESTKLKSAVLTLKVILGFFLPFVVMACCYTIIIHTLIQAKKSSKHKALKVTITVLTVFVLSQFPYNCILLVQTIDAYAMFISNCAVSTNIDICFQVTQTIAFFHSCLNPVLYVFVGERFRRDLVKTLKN

Gi activation: area over the G⍺i-Gβγ dissociation curve (AOC), against CCR9 WT: 6 fold
Substance: G⍺i-Nluc (from UniProt P63096 1-354) (natural protein)
